T1: TNFR1 (Homo sapiens, UniProt P19438)
T1 chain: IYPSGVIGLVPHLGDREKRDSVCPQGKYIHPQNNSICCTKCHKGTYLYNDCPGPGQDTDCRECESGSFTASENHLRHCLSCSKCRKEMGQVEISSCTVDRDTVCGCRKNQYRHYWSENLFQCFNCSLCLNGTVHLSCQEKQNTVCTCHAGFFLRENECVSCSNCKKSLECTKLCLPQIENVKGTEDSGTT


Molecular target: T1, TNFR1
Experiment: yeast display SC50

| Binder | apparent Kd (screen) |
| --- | --- |
| D32F (designed binder) SMEEEVEKAAKEYEKKKKEAIEKHLEKLKAKFKEAAERFLKELEEAAKEYAKDEAKTMSEEEAKRRAKKYKEKVLLSELSEEEQKEIKEAEEKLVRTILKYVEEAAK | 6.43 nM |
| K11I (designed binder) SMEEEVEKAAIEYEKKKKEAIEKHLEKLKAKDKEAAERFLKELEEAAKEYAKDEAKTMSEEEAKRRAKKYKEKVLLSELSEEEQKEIKEAEEKLVRTILKYVEEAAK | 0.539 nM |
| E3Q (designed binder) SMQEEVEKAAKEYEKKKKEAIEKHLEKLKAKDKEAAERFLKELEEAAKEYAKDEAKTMSEEEAKRRAKKYKEKVLLSELSEEEQKEIKEAEEKLVRTILKYVEEAAK | 2.25 nM |
| E12Q (designed binder) SMEEEVEKAAKQYEKKKKEAIEKHLEKLKAKDKEAAERFLKELEEAAKEYAKDEAKTMSEEEAKRRAKKYKEKVLLSELSEEEQKEIKEAEEKLVRTILKYVEEAAK | 0.956 nM |
| F39Q (designed binder) SMEEEVEKAAKEYEKKKKEAIEKHLEKLKAKDKEAAERQLKELEEAAKEYAKDEAKTMSEEEAKRRAKKYKEKVLLSELSEEEQKEIKEAEEKLVRTILKYVEEAAK | 5.84 nM |
| K17I (designed binder) SMEEEVEKAAKEYEKKIKEAIEKHLEKLKAKDKEAAERFLKELEEAAKEYAKDEAKTMSEEEAKRRAKKYKEKVLLSELSEEEQKEIKEAEEKLVRTILKYVEEAAK | 0.956 nM |
| E14V (designed binder) SMEEEVEKAAKEYVKKKKEAIEKHLEKLKAKDKEAAERFLKELEEAAKEYAKDEAKTMSEEEAKRRAKKYKEKVLLSELSEEEQKEIKEAEEKLVRTILKYVEEAAK | 11.4 nM |
| D53L (designed binder) SMEEEVEKAAKEYEKKKKEAIEKHLEKLKAKDKEAAERFLKELEEAAKEYAKLEAKTMSEEEAKRRAKKYKEKVLLSELSEEEQKEIKEAEEKLVRTILKYVEEAAK | 13.8 nM |

Now from value to binder:

| apparent Kd (screen) | Binder |
| --- | --- |
| 1.05 nM | E86V (designed binder) SMEEEVEKAAKEYEKKKKEAIEKHLEKLKAKDKEAAERFLKELEEAAKEYAKDEAKTMSEEEAKRRAKKYKEKVLLSELSEEEQKVIKEAEEKLVRTILKYVEEAAK |
| 0.956 nM | E86T (designed binder) SMEEEVEKAAKEYEKKKKEAIEKHLEKLKAKDKEAAERFLKELEEAAKEYAKDEAKTMSEEEAKRRAKKYKEKVLLSELSEEEQKTIKEAEEKLVRTILKYVEEAAK |
| 1.4 nM | V102W (designed binder) SMEEEVEKAAKEYEKKKKEAIEKHLEKLKAKDKEAAERFLKELEEAAKEYAKDEAKTMSEEEAKRRAKKYKEKVLLSELSEEEQKEIKEAEEKLVRTILKYWEEAAK |
| 0.956 nM | S80H (designed binder) SMEEEVEKAAKEYEKKKKEAIEKHLEKLKAKDKEAAERFLKELEEAAKEYAKDEAKTMSEEEAKRRAKKYKEKVLLSELHEEEQKEIKEAEEKLVRTILKYVEEAAK |
| 12.5 nM | L79N (designed binder) SMEEEVEKAAKEYEKKKKEAIEKHLEKLKAKDKEAAERFLKELEEAAKEYAKDEAKTMSEEEAKRRAKKYKEKVLLSENSEEEQKEIKEAEEKLVRTILKYVEEAAK |
| 5.31 nM | K71G (designed binder) SMEEEVEKAAKEYEKKKKEAIEKHLEKLKAKDKEAAERFLKELEEAAKEYAKDEAKTMSEEEAKRRAKKYGEKVLLSELSEEEQKEIKEAEEKLVRTILKYVEEAAK |
